No end group written: not given here.
Tests used:
[1] = tested on: nesfatin; assay: Specificity of immunohistochemical stain of rat hypothalamus with anti-nesfatin-1 antibody after pre-reaction with peptides; type: binding; details: 5 µg peptide per 1 µg antibody
Method: In a method similar to that in Working Example 4, immunohistochemical stain was carried out on tissue sections of the rat brain each containing arcuate nucleus and paraventricular nucleus, in which anti-nesfatin-1 antibody (nesfatin-1 IgG; Working Example 10) was used in stead of a anti-NAP polyclonal antibody as the primary antibody.

[2] = tested on: nesfatin; assay: Binding specificity of anti-nesfatin-1 antibody: Western blotting of rat brain extracts after pre-reaction with peptides; details: 5 µg peptide per 1 µg anti-nesfatin-1 antibody, room temperature, 1 hour
Method: Western blotting analysis was carried out by the method described in Working Example 3 with the primary antibody being changed from anti-NAP polyclonal antibody to anti-nesfatin-1 antibody.

[3] = Intraventricular administration of nesfatin-1 alone or leptin alone, amount of food intake; type: in vivo, rat; details: 5 pmol nesfatin-1 alone, third ventricle; vs control group (physiological saline)
Method: The experimental condition was similar to that in Working Example 12, and for a group that received 5 pmol of nesfatin-1 alone into the third ventricle of the rat brain immediately before the start of the dark period and a group that received 5 pmol of nesfatin-1 and 8 µg of anti-nesfatin-1 antibody (nesfatin-1 IgG), the amount of food intake for 1 hour after administration was measured and compared to that for the control group (physiological saline alone was administered). Also, for a group that received only leptin (Rat leptin: R & D Systems, 598-LP-01M) (1 µg) which is known to have an activity of suppressing food intake by intraventricular administration and a group that received leptin and anti-nesfatin-1 antibody, its effect on food intake was also studied.

[4] = Continuous intraventricular administration of nesfatin-1 by osmotic pump, amount of food intake and body weight; type: in vivo, Wistar rats; details: 5 pmol per day into the third ventricle, 10 consecutive days, vs physiological saline
Method: The administration of nesfatin-1 was carried out into the ventricle by an osmotic pump for 10 consecutive days. Among 8 week-old male Wistar rats (purchased from Nippon SLC), those individuals weighing 200-250 g were used. The rats received intraperitoneal administration of 40 mg/kg body weight of pentobarbital sodium for anesthesia. After the hair was removed from the head, they were fixed in a brain stereotaxic apparatus (David Kopf Instruments, Model 962) and the scalp was incised and a 23G needle (guide cannula) was implanted so that the tip reaches the third ventricle (2.5 mm behind the bregma, 9.5 mm from the surface). One week after implanting the guide cannula, the animals were subjected to the experiment. The osmotic pump used was Alzet's Model 2002. […] The measurement of the amount of food intake started from the day after the cannula and the osmotic pump were implanted, and the weight of the residual food was measured at 9 a.m. every day, and by determining the difference from the weight of the food on the previous day, the amount of food intake of the day (24 hours) was calculated. From day 6 after the start of administration, body weight was measured at the time of measuring the amount of food intake, and changes in body weight were also recorded.

[5] = Single administration of nesfatin-1, nesfatin-2, nesfatin-3 or nesfatin-2/3 into the third ventricle, amount of food intake; type: in vivo, Wistar rats
Method: Samples used for intracerebral administration were PBS alone (vehicle group), or nesfatin-1, nesfatin-2, nesfatin-3 or nesfatin-2/3 prepared in Working Example 10 each dissolved in PBS, and 25 pmol was administered per individual into the third ventricle immediately before the dark period. Rats used were Wistar rats (purchased from Nippon SLC) and were housed as in Working Example 6, and among 8-9 week-old male Wistar rats, those individuals weighing 200-250 g were selected and used (N=5). The technique of intraventricular administration and the measurement of the amount of food intake in rats were carried out in a method similar to those in Workig Example 6. In the measurement of the amount of food intake, the reduced amount of food at 1 hour after administration (0-1 hr) and […] (1-3 hrs) was determined as food intake.
In the same condition above, 1, 5 or 25 pmol of nesfatin-1 as a sample was administered per rat individual into the third ventricle immediately before the dark period. In this experiment, the amount of food intake was determined at 1 hour after administration (0-1 hr).
The experimental condition was similar to that in Working Example 12, and 5 pmol of nesfatin-1 was administered into the third ventricle of the rat brain immediately before the start of the dark period, the amount decreased of the food (the amount of food intake) during 1 hour immediately after administration (0-1 hr), during 2 hours from 1 hour after the administration (1-3 hr), during 3 hours from 3 hours after the administration (3-6 hr), and during 6 hours from 6 hours after the administration (6-12 hr) was measured as the amount of food intake. As the control group, the amount of food intake by individuals that received physiological saline alone was measured.

[6] = Continuous administration of nesfatin-1 into the rat ventricle, weight of adipose tissues and muscle; type: in vivo; details: 5 pmol per day, third ventricle, osmotic pump, 10 days; vs physiological saline
Method: Nesfatin-1 (5 pmol per day) or physiological saline alone (the control group) was administered into the third ventricle of a rat using an osmotic pump for 10 consecutive days (5 and 4 rats were used per group). Intraventricular administration into rats by the osmotic pump was carried out in a manner similar to that in Working Example 13.
After the administration of nesfatin-1 or physiological saline alone for 10 days, each rat was sacrificed, dissected to excise all of the abdominal subcutaneous adipose tissue, the epididymal adipose tissue (these are white adipose tissue) and the retroperitoneal brown adipose tissue, and the weight of them was measured. Also, the gastrocnemial muscles of the bilateral hind legs were harvested and the weight of them was measured. From the weight of the tissues measured, their ratio to the body weight of each individual was determined (tissue weight/body weight, mg/g). For testing of significant difference, analysis of variance was used.

[7] = rat brain tissue containing the arcuate nucleus
[8] = rat brain tissue section containing the paraventricular nucleus

Molecule: CART: Rat Cocaine- and Amphetamine-Regulated Transcript 55-102; Peptide Institute, Inc., 4351-s (IPIYEKKYGQVPMCDAGEQCAVRKGARIGKLCDCPRGTSCNSFLLKCL; ends and bridges not checked; cysteine pairing not given here)
- immunological stain with anti-nesfatin-1 antibody after pre-reaction with the peptide [1, 7]: does not disappear
- immunological stain with anti-nesfatin-1 antibody after pre-reaction with the peptide [1, 8]: does not disappear

Molecule: MCH: Human Melanin-Concentrating Hormone; Peptide Institute, Inc., 4369-v
- 47.5 kd band of nesfatin in Western blotting after pre-reaction of anti-nesfatin-1 antibody with the peptide [2]: did not disappear

Molecule: NPY: Human, Rat Neuropeptide Y; Peptide Institute, Inc., 4158-v
- 47.5 kd band of nesfatin in Western blotting after pre-reaction of anti-nesfatin-1 antibody with the peptide [2]: did not disappear
- immunological stain with anti-nesfatin-1 antibody after pre-reaction with the peptide [1, 7]: does not disappear
- immunological stain with anti-nesfatin-1 antibody after pre-reaction with the peptide [1, 8]: does not disappear

Molecule: Orexin-A: Human, Rat, Mouse, Bovine Orexin-A; Peptide Institute, Inc., 4346-s (QPLPDCCRQKTCSCRLYELLHGAGNHAAGILTL)
- 47.5 kd band of nesfatin in Western blotting after pre-reaction of anti-nesfatin-1 antibody with the peptide [2]: did not disappear

B1: recombinant nesfatin: recombinant matured mouse nesfatin (SEQ ID NO: 26) from E. coli GST-NEFA fusion protein treated with protease (protein)
chain: GSPIDVDKTKVHNTEPVENARIEPPDTGLYYDEYLKQVIEVLETDPHFREKLQKADIEEIRSGRLSQELDLVSHKVRTRLDELKRQEVGRLRMLIKAKLDALQDTGMNHHLLLKQFEHLNHQNPNTFESRDLDMLIKAATADLEQYDRTRHEEFKKYEMMKEHERREYLKTLSEEKRKEEESKFEEMKRKHEDHPKVNHPGSKDQLKEVWEETDGLDPNDFDPKTFFKLHDVNNDGFLDEQELEALFTRELEKVYNPQNAEDDMIEMEEERLRMREHVMSEIDNNKDRLVTLEEFLRATEKKEFLEPDSWETLDQQQLFTEDELKEYESIIAIQENELKKRAEELQKQKEDLQRQHDHLEAQKQEYHQAVQHLEQKKLQQGIAPSGPAGELKFEPHT
- amount of food intake for 1 hour after administration [3]: significantly decreased

B2: nesfatin-1: peptide of 82 residues, amino acid Nos. 25 to 106 of nesfatin; rat nesfatin-1 (SEQ ID NO: 15) by solid-phase synthesis (peptide, UniProt Q9JI85 25-106, looked up)
Nesfatin-1: VPIDVDKTKVHNVEPVESARIEPPDTGLYYDEYLKQVIEVLETDPHFREKLQKADIEEIRSGRLSQELDLVSHKVRTRLDEL
modifications: Nesfatin-1
- amount of food intake of the day (24 hours) [4]: decrease in the amount of food intake was noted from day 1
- rate of increase in body weight [4]: significantly declined
- immunological stain with anti-nesfatin-1 antibody after pre-reaction with the peptide [1, 7]: the stain disappears
- immunological stain with anti-nesfatin-1 antibody after pre-reaction with the peptide [1, 8]: the stain disappears
- amount of food intake ([5]; 5 pmol, third ventricle, 0-1 hr, vs saline group (0)): significant decrerased amount of food intake
- amount of food intake ([5]; 25 pmol into the third ventricle immediately before the dark period, 0-1 hr, vs control (PBS)): marked effect on the suppression of feeding
- amount of food intake ([5]; 25 pmol into the third ventricle immediately before the dark period, 1-3 hr, vs control (PBS)): marked effect on the suppression of feeding
- amount of food intake ([5]; 25 pmol, third ventricle, 0-1 hr, dose experiment, vs saline group (0)): significant decrerased amount of food intake
- amount of food intake ([5]; 1, 5 or 25 pmol per rat, third ventricle, 0-1 hr, dose relation vs saline group (0)): decreased amount of food intake, with the increased amount of the administered nesfation-1
- amount of food intake ([5]; Working Example 27, 5 pmol, third ventricle, 0-1 hr, p<0.01 vs control): Significant decreases in the amount of food intake
- amount of food intake ([5]; Working Example 27, 5 pmol, third ventricle, 1-3 hr, p<0.01 vs control): Significant decreases in the amount of food intake
- amount of food intake ([5]; Working Example 27, 5 pmol, third ventricle, 3-6 hr, p<0.01 vs control): Significant decreases in the amount of food intake
- amount of food intake ([5]; Working Example 27, 5 pmol, third ventricle, 6-12 hr, p<0.01 vs control): an increase in the amount of food intake
- ratio of tissue weight to body weight, abdominal subcutaneous adipose tissue [6]: significant decreases in the ratio of tissue weight to body weight
- ratio of tissue weight to body weight, epididymal adipose tissue [6]: significant decreases in the ratio of tissue weight to body weight
- ratio of tissue weight to body weight, mesenteric adipose tissue [6]: significant decreases in the ratio of tissue weight to body weight
- ratio of tissue weight to body weight, retroperitoneal adipose tissue [6]: tended to decrease but no significant difference
- total tissue weight to the body weight, brown adipose tissue [6]: no significant difference
- total tissue weight to the body weight, gastrocnemial muscle [6]: no significant difference

Reference: EP1900813A1, “NOVEL PHYSIOLOGICAL SUBSTANCE NESFATIN, SUBSTANCE RELEVANT THERETO, AND USE OF THE SUBSTANCES” (Teijin Pharma Limited, priority 2005, dated 2008)
